Assay results reported in US6673571B2, “Polypeptides having aminopeptidase activity and nucleic acids encoding same” (Novozymes Biotech, Inc., priority 1997, dated 2004).

Experiments:
[1] = Substrate specificity: initial rates of hydrolysis of para-nitroanilides; type: biochemical; settings: pH 7.5, 25° C.
Description: Stock solutions of 100 mg of each para-nitroanilide per ml of dimethylsulfoxide were diluted with 50 mM sodium phosphate pH 7.5 buffer to concentrations of 2 mg per ml. Where the substrates were incompletely soluble, their suspensions were used (shown with an asterisk in Table 2 below). The reaction of the Sphingomonas capsulata aminopeptidase I with each para-nitroanilide was initiated when a 10 μl aliquot of the enzyme solution in 50 mM sodium phosphate pH 7.0 buffer was added to 190 μl of a substrate solution in a 96 well microtiter plate. Analysis of initial rates of hydrolysis of the para-nitroanilides was monitored at 405 nm and 25° C. in a THERMOmax Microplate Reader (Molecular Devices Corp., Sunnyvale, Calif., USA).

[2] = pH optimum / pH profile with Ala-pNA; type: biochemical; settings: room temperature
Description: The pH optimum for the 67 kDa aminopeptidase I was determined using the following protocol. The buffer solutions at different pH's were prepared by adding distilled water to 4.25 g of sodium acetate and 3.78 g of Tris (free base) to a final volume of 250 ml and adjusting the pH to 8.5, 8.0, 7.5, 7.0, 6.5, 5.80, 5.5, and 5.0 with 36.5-38% HCl. Aliquots of 10 ml were removed at each pH. A 20 μl volume of a 100 mg/ml solution of Ala-pNA in DMSO was added to 980 μl of each buffer solution. The pH was then determined to be 8.5, 8.0, 7.57, 7.30, 7.09, 6.68, 6.14, and 5.25 for the buffer solutions after the addition of the substrate. Another solution of substrate at a concentration of 2 mg/ml was prepared at the various pHs. The reaction was initiated by the addition of 10 μl of enzyme solution, diluted 5-fold in 10 mM Tris-HCl pH 7.5, to 200 μl of substrate at the various pHs at room temperature and monitored at 405 nm.
There was no detectable autohydrolysis of Ala-pNa in the pH range 5.25-8.5.

[3] = pH optimum / pH profile with Ala-pNA; type: biochemical
[4] = tested on: soy protein; test: Degree of hydrolysis (DH) in soy protein hydrolysis, OPA method; type: biochemical, soy bean; settings: for DH: 50° C., 18 hours
Description: The degree of hydrolysis (DH) of the soy protein was determined as follows. The DH, defined as described in by Adler-Nissen (1986, Enzymic Hydrolysis of Food Proteins, Elsevier Applied Science Publishers), was determined by reaction of the supernatant with OPA (ortho-phthaldialdehyde, Sigma Chemical Co., St. Louis, Mo.) essentially as described by Church et al., 1983, Journal of Dairy Science 66: 1219-1227 with correction factors as determined by Adler-Nissen, 1979, Agricultural and Food Chemistry 27: 1256-1262.
The aminopeptidase I was added in increasing dosage to either a low-background (1.5% of the substrate protein) or a high background (6% of the substrate protein) of FLAVOURZYME 1000L™ and a dosage of ALCALASE 2.4L® of 1.5% of the substrate protein. The experiments were carried out as described below:
Hydrolysis was carried out on a 10 ml scale at 50° C. for 18 hours. The initial pH was 7 with no pH readjustment during hydrolysis. Inactivation of the enzyme was carried out at 85° C. for 3 minutes in a water bath. The substrate concentration was 2% protein from soy bean meal. The substrate was heat treated in a water bath at 85° C. for 3 minutes. The enzymes used with FLAVOURZYME 1000L™ and ALCALASE 2.4L® described above were crude Sphingomonas capsulata aminopeptidase I powder (see Example 1) and the purified Sphingomonas capsulata aminopeptidase I described in Example 4.

B1: Sphingomonas capsulata aminopeptidase I: purified aminopeptidase of 67 kDa from Sphingomonas capsulata IFO 12533; deduced amino acid sequence SEQ ID NO:2 (protein)
chain: MRKTPQGIGLLSALSTSTLALATLILAQPALAQVQPASNSRPMAVPIAHGVPDAQDVPYPGTIGLQIDATDLATGAFRVVETVPVAADAKELILQLPAWLPGEHGNRGPVAELAGITFEAKGQKLAWTRDPVEVNAFHIPLPAGTSEVVARFIHTSPLRDSEGRITVTREMLNVQWEKMSLYPAGHYVRQIKVRPTVSFPQGWTVFTALDGKTQSGAGNTVTWAETDYETLVDSPIFAGLYAARHDLGHNVYFDLVADKPELLAIKPENLAAYRNLADEAVGAFGARHFDHYDFLLALTDRMGSIGLEHHRSSENQQEPKSLTDWAAYDWDRNVIAHEFSHSWDGKYRRSAKLWTPDYRQPMQDNLLWVYEGQTQFWGLVLAARSGVQSKDVVLGSLANYAGTFTQTAGRDWRSVEDTTMDPIFAARKPKPYSSLTRNEDYYTEGALVWLEADQIIRDGTGGKKGLDDFAKAFFGVRDGDWGVLTYEFDDVVKTLNGVYPYDWATFLKTRLQTPGQPVPLGGIERGGYKLEFKDEPNPYDKARMADAKVLSLFNSLGVTLDKDGKVTASRWDGPAFKAGLVSGMQVMAVNGDAYDADKLKGAITNAKTGNPGAGRPIELLVKRDDRFVTLPITYADGLRWPWLVRTAPGTAPTGLDKLLAPHASKLPVGKAAK
In the case of B1, the “Relative activity (%)” value ([1]; Ala p-nitroanilide) is reported as 100%, the “Relative activity (%)” value ([1]; Asp p-nitroanilide) is reported as 4.5% and the “Relative activity (%)” value ([1]; Glu* p-nitroanilide (suspension)) is reported as 6%. For the same molecule, the “Relative activity (%)” value ([1]; Gly* p-nitroanilide (suspension)) was 20%, the “Relative activity (%)” value ([1]; Ile p-nitroanilide) was 0.5% and the “Relative activity (%)” value ([1]; Leu p-nitroanilide) was 18.5%. For the same molecule, the “Relative activity (%)” value ([1]; Lys p-nitroanilide) was 6%, the “Relative activity (%)” value ([1]; Met p-nitroanilide) was 24% and the “Relative activity (%)” value ([1]; Phe* p-nitroanilide (suspension)) was 0%. The “Relative activity (%)” value ([1]; Pro p-nitroanilide) was 0%, the “Relative activity (%)” value ([1]; Val p-nitroanilide) was 0.5% and the “Relative activity (%)” value ([2]; pH 5.25, Ala-pNA) was 24.9%. The “Relative activity (%)” value ([2]; pH 6.14, Ala-pNA) was 56.4%, the “Relative activity (%)” value ([2]; pH 6.68, Ala-pNA) was 78.4% and the “Relative activity (%)” value ([2]; pH 7.09, Ala-pNA) was 99.4%. The “Relative activity (%)” value ([2]; pH 7.30, Ala-pNA) was 100%, the “Relative activity (%)” value ([2]; pH 7.57, Ala-pNA) was 92.8% and the “Relative activity (%)” value ([2]; pH 8.0, Ala-pNA) was 61%. The “Relative activity (%)” value ([2]; pH 8.49, Ala-pNA) was 24.2%, the Km ([3]; Ala-pNA, pH 7.5) was 2500 µM and the “kinetics of hydrolysis of Ala-pNA” value ([3]; pH 5.5, apparent Km and Vmax negative due to activation by substrate) was “did not follow Michaelis-Menten kinetics”. The “% Relative increase in DH” value ([4]; 1.5% FLAVOURZYME +67 kDa AP) was 34.8%, the “% Relative increase in DH” value ([4]; 1.5% FLAVOURZYME +67 kDa AP versus 6.0% FLAVOURZYME) was −2.2% and the “% Relative increase in DH” value ([4]; 6.0% FLAVOURZYME +67 kDa AP) was 14.2%. For the same molecule, the DH ([4]; added to high dosage (6%) FLAVOURZYME + 1.5% ALCALASE, from DH 61%) was 71%, the DH ([4]; added to low dosage (1.5%) FLAVOURZYME + 1.5% ALCALASE, from DH 44%) was 61-62% and the “share of the DH increasing effect of the crude enzyme” value ([4]; high dosage of FLAVOURZYME, (71−61)/(77−61)×100%) was 63%. The “share of the DH increasing effect of the crude enzyme” value ([4]; low dosage of FLAVOURZYME, (62−44)/(72−44)×100%) was 64%, the “effect of adding aminopeptidase I as % of the effect of the crude enzyme” value ([4]; relative to 1.5% + 0.5% extra FLAVOURZYME, (62−48)/(72−48)×100%) was 58% and the “effect of aminopeptidase I as % of the effect of the crude enzyme” value ([4]; relative to 6% + 1% extra FLAVOURZYME, (71−63)/(77−63)×100%) was 57%.
